Some targets named below: TrkA Y490/785F (UniProt P04629); TrkA Y490F (UniProt P04629); TrkA Y785F (UniProt P04629).
Common to all, as to assay: cell-based or functional assay
Assay [1] deals with wild-type TrkA, baculovirus-expressed, activated (autophosphorylated) (UniProt P04629).

For the substance SHP-1 (enzyme), the Trk tyrosine dephosphorylation on co-expression in insect cells (anti-pTyr blot) (in the assay with TrkA Y490/785F; in the assay with TrkA Y490F; in the assay with TrkA Y785F; in assay [1]) was 8 fold in each case. This substance registered a dephosphorylation of Trk at Y674/Y675 (phospho-specific anti-Trk antibodies, co-expression in insect cells) in assay [1] of 10 fold.
